One protein from ChEMBL document CHEMBL1122067, “Species- or isozyme-specific enzyme inhibitors. 4. Design of a two-site inhibitor of adenylate kinase with isozyme selectivity” (J Med Chem, 1982) can be followed below.

Substrate in data set [1]: CCCCSc1ncnc2c1ncn2C1O[C@H](COP(=O)(O)OP(=O)(O)OP(=O)(O)O)[C@@H](O)[C@H]1O
Briefly: (§1) Concentration for half-maximal velocity for adenylate kinase (AK III) was determined.

Substrate in data set [2]: Nc1ncnc2c1ncn2[C@@H]1O[C@H](COP(=O)(O)O)[C@@H](O)[C@H]1O
Described as §1.

Substrate in data set [3]: O=C(CI)NCCCCCNc1ncnc2c1ncn2C1O[C@H](COP(=O)(O)OP(=O)(O)OP(=O)(O)O)[C@@H](O)[C@H]1O
The data set is described as §1.

Substrate in data set [4]: CCCCNc1ncnc2c1ncn2C1O[C@H](COP(=O)(O)OP(=O)(O)OP(=O)(O)O)[C@@H](O)[C@H]1O
The description is as §1.

Compound in data set [5]: CCSc1nc2c(N)ncnc2n1[C@@H]1O[C@H](COP(=O)(O)O)[C@@H](O)[C@H]1O
Briefly: Inhibitory constant of rat adenylate kinase (AK II) isozymes expressed as relative maximal velocity.

Compound in data set [6]: CC(=O)NCCCCCCCCNc1ncnc2c1ncn2C1O[C@H](COP(=O)(O)O)[C@@H](O)[C@H]1O
Kind of data set: (§2) Inhibitory constant of rat adenylate kinase (AK III) isozymes expressed as relative maximal velocity.

Compound in data set [7]: CCCCSc1ncnc2c1ncn2C1O[C@H](COP(=O)(O)OP(=O)(O)OP(=O)(O)O)[C@@H](O)[C@H]1O
The description is as §2.

Compound in data set [8]: Nc1ncnc2c1ncn2[C@@H]1O[C@H](COP(=O)(O)O)[C@@H](O)[C@H]1O
The description is as §2.

Compound in data set [9]: CCCCN(CCCC)c1ncnc2c1ncn2C1O[C@H](COP(=O)(O)OP(=O)(O)OP(=O)(O)O)[C@@H](O)[C@H]1O
The data set is described as §2.

Compound in data set [10]: O=C(CI)NCCCCCNc1ncnc2c1ncn2C1O[C@H](COP(=O)(O)OP(=O)(O)OP(=O)(O)O)[C@@H](O)[C@H]1O
The data set is described as §2.

Compound in data set [11]: CCCCNc1ncnc2c1ncn2C1O[C@H](COP(=O)(O)OP(=O)(O)OP(=O)(O)O)[C@@H](O)[C@H]1O
The description is as §2.

Substrate in data set [12]: CC(=O)NCCNc1ncnc2c1ncn2C1O[C@H](COP(=O)(O)O)[C@@H](O)[C@H]1O
Kind of data set: Rat Adenylate kinase III and maximal velocity was determined.

B1: GTP:AMP phosphotransferase AK3, mitochondrial (Rattus norvegicus), P29411 (protein)
chain: MGASGRLLRAVIMGAPGSGKGTGSSRITKHFELKHLSSGDLLRQNMLQGTEIAVLAKSFIDQGKLIPDDDMTRLALHELKNLTQCSWLLDGFPRTLPQAEALDRVYQIDTVINLNVPFEVIKLRLTARWIHPASGRVYNIEFNPPKTVGIDDLTGEPLIQREDDKPETVIKRLKAYEAQTEPVLQYYQKKGVLETFSGTETNKIRPHVYSFLQMKVPETIQKASVTP
By Km is commonly meant the substrate concentration at which the rate is half of its maximum. On to B1, for which the Michaelis constant (Km) in [1] is 1450 µM; in data set [2] it was 90 µM; in data set [3] it was 400 µM; in data set [4], 1200 µM. In addition, the Vmax in data set [5] was found to be 0%; in data set [6] it was 0%; in [7], 57%; in data set [8] it was 100%; in [9], 0%; in data set [10] it was 9%. The Vmax in data set [11] is 25%; in [12], 0%.
